Test results as given in patent US20230203463, “RNA-GUIDED NUCLEASES AND ACTIVE FRAGMENTS AND VARIANTS THEREOF AND METHODS OF USE” (LifeEDIT Therapeutics, Inc., published 2023).
Positions count from the first letter of the chain named.

Assays:
[1] = system: T1, APG05405 (Bacillus sp.); assay: cleavage_in_vitro; details: trans cleavage
T1 sequence: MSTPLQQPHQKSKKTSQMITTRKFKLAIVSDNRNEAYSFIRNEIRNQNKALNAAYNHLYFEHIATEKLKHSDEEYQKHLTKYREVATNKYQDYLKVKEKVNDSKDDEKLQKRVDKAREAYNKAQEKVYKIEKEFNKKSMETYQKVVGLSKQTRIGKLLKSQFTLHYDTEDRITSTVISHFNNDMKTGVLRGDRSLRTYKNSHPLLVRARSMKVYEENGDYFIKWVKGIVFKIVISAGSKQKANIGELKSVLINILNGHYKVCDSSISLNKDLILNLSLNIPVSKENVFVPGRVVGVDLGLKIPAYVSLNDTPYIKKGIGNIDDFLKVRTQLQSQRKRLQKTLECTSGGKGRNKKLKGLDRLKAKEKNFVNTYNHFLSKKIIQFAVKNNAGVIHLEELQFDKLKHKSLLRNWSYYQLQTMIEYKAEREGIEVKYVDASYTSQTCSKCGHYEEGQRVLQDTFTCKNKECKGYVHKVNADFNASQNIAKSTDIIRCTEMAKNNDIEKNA

[2] = target: T2, APG05405 (Bacillus sp.); assay: thermal shift; peak 43 C vs 36 C without RNA; details: tags: C-terminal His10
T2 chain: T1 sequence
Protocol: (§1) RNA binding was confirmed by differential scanning fluorimetry (Niesen, F.H., H. Berglund, and M. Vedadi. 2007. Nat. Protoc. 2: 2212-2221). Dual RNA complexes were produced by mixing an excess of crRNA with tracrRNA in Annealing Buffer (Synthego, 60 mM KCl 6 mM HEPES pH 7). The candidate effector protein and guide RNA (either dual RNA complex or sgRNA) were incubated at final concentrations of 0.5 µM effector protein and 1 µM guide RNA in phosphate buffered saline (PBS, Thermo Fisher). These were incubated for 20 minutes at room temperature and then mixed 1:1 with Sypro Orange dye solution that had been diluted in PBS. A melt curve was obtained measuring fluorescence intensity (FI) as a function of temperature and the first derivative of the melt curve (dFI/dT) was calculated. A shift in the plot of dFI/dT as a function of temperature of the putative RNP relative to the original nuclease indicates RNA binding and was used to evaluate putative guide RNA combinations. […] Peak 1 refers to the temperature associated with the largest observed peak for the given sample. If a second peak is observed, it is indicated in the Peak 2 column. Interpretation of the data regarding the formation of a complex is indicated in the “Binding?” column Table 3. “Yes” indicates binding was observed. “N/A” indicates sufficient data was not available to determine if binding could occur.

[3] = target: T3, APG09624 (Bacillus sp.); assay: thermal shift; peaks 39 and 44 C vs 38 C without RNA; details: tags: C-terminal His10
T3 chain: T1 sequence with D102A, I177L, T311N, K326N, S333N, N352S
Protocol: as §1

**Q.** For “GGGAAACAGCUAGAAUGUAACUUAAAGUAGGUCAAUGUUUAAAUUCGAUGUUGCAAUUUGUUUGGACAAGUGGAUUAAAACGUUCCUUGAAAAUCAUAUAAAGCAGCCAGUUUACGGGCUUGGGCGAAUUUGCGUCCAAAGGGUGAGGCCAGGUGUAAGUAAGAACCUACAAAAGCACUCACCAAAGGGUCAAAAAGAUCCUACAUGGAUGUGAGGAUUGAAAUACUACAACAGCCACAACG / TCGTCGGCAGCGTCAGATGTGTATAAGAGACAGAACGACGGCCAGTGAATTNNNNNNNNACTACAACAGCCACAACGTCTATATCATGGGATCCTCTAGAGTCGACCTGCTGTCTCTTATACACATCTCCGAGCCCACGAGAC / GTCTCGTGGGCTCGGAGATGTGTATAAGAGACAGCAGGTCGACTCTAGAGGATCCCATGATATAGACGTTGTGGCTGTTGTAGTNNNNNNNNAATTCACTGGCCGTCGTTCTGTCTCTTATACACATCTGACGCTGCCGACGA [sgRNA Gsg.2 ; dsPCR2]”, which activity ([1]; NEBuffer 2, 37 C, degenerate 8 bp 5' of target, PAM not determined) is on record?
**A.** 768 AU/min

**Q.** Which activity ([1]; non-matching guide) does the source give for “GGGAAACAGCUAGAAUGUAACUUAAAGUAGGUCAAUGUUUAAAUUCGAUGUUGCAAUUUGUUUGGACAAGUGGAUUAAAACGUUCCUUGAAAAUCAUAUAAAGCAGCCAGUUUACGGGCUUGGGCGAAUUUGCGUCCAAAGGGUGAGGCCAGGUGUAAGUAAGAACCUACAAAAGCACUCACCAAAGGGUCAAAAAGAUCCUACAUGGAUGUGAGGAUUGAAAUACUACAACAGCCACAACG / TCGTCGGCAGCGTCAGATGTGTATAAGAGACAGAACGACGGCCAGTGAATTNNNNNTGGAATGGGAACTAAAGTAATGGCAAACGAATTCGTAGGATCCTCTAGAGTCGACCTGCTGTCTCTTATACACATCTCCGAGCCCACGAGAC / GTCTCGTGGGCTCGGAGATGTGTATAAGAGACAGCAGGTCGACTCTAGAGGATCCTACGAATTCGTTTGCCATTACTTTAGTTCCCATTCCANNNNNAATTCACTGGCCGTCGTTCTGTCTCTTATACACATCTGACGCTGCCGACGA [sgRNA Gsg.2 ; dsPCR3]” here?
**A.** 102 AU/min

**Q.** For “GGGAAACAGCUAGAAUGUAACUUAAAGUAGGUCAAUGUUUAAAUUCGAUGUUGCAAUUUGUUUGGACAAGUGGAUUAAAACGUUCCUUGAAAAUCAUAUAAAGCAGCCAGUUUACGGGCUUGGGCGAAUUUGCGUCCAAAGGGUGAGGCCAGGUGUAAGUAAGAACCUACAAAAGCACUCACCAAAGGGUCAAAAAGAUCCUACAUGGAUGUGAGGAUUGAAAUUGGAAUGGGAACUAAAGU / TCGTCGGCAGCGTCAGATGTGTATAAGAGACAGAACGACGGCCAGTGAATTNNNNNNNNACTACAACAGCCACAACGTCTATATCATGGGATCCTCTAGAGTCGACCTGCTGTCTCTTATACACATCTCCGAGCCCACGAGAC / GTCTCGTGGGCTCGGAGATGTGTATAAGAGACAGCAGGTCGACTCTAGAGGATCCCATGATATAGACGTTGTGGCTGTTGTAGTNNNNNNNNAATTCACTGGCCGTCGTTCTGTCTCTTATACACATCTGACGCTGCCGACGA [sgRNA Gsg.3 ; dsPCR2]”, which activity ([1]; non-matching guide) is on record?
**A.** 78 AU/min

**Q.** With “GGGAAACAGCUAGAAUGUAACUUAAAGUAGGUCAAUGUUUAAAUUCGAUGUUGCAAUUUGUUUGGACAAGUGGAUUAAAACGUUCCUUGAAAAUCAUAUAAAGCAGCCAGUUUACGGGCUUGGGCGAAUUUGCGUCCAAAGGGUGAGGCCAGGUGUAAGUAAGAACCUACAAAAGCACUCACCAAAGGGUCAAAAAGAUCCUACAUGGAUGUGAGGAUUGAAAUUGGAAUGGGAACUAAAGU / TCGTCGGCAGCGTCAGATGTGTATAAGAGACAGAACGACGGCCAGTGAATTNNNNNTGGAATGGGAACTAAAGTAATGGCAAACGAATTCGTAGGATCCTCTAGAGTCGACCTGCTGTCTCTTATACACATCTCCGAGCCCACGAGAC / GTCTCGTGGGCTCGGAGATGTGTATAAGAGACAGCAGGTCGACTCTAGAGGATCCTACGAATTCGTTTGCCATTACTTTAGTTCCCATTCCANNNNNAATTCACTGGCCGTCGTTCTGTCTCTTATACACATCTGACGCTGCCGACGA [sgRNA Gsg.3 ; dsPCR3]” as the molecule, how does the activity ([1]; NEBuffer 2, 37 C, degenerate 5 bp 5' of target, PAM not determined) read?
**A.** 780 AU/min

B1: crRNA 143 + tracrRNA 145 (ssRNA)
RNA 1: GUCACAUCCUACAUGGAUGUGAGGAUUGAAAUUGGAAUGGGAACUAAAGUAAUGG
RNA 2: AAACAGCUAGAAUGUAACUUAAAGUAGGUCAAUGUUUAAAUUCGAUGUUGCAAUUUGUUUGGACAAGUGGAUUAAAACGUUCCUUGAAAAUCAUAUAAAGCAGCCAGUUUACGGGCUUGGGCGAAUUUGCGUCCAAAGGGUGAGGCCAGGUGUAAGUAAGAACCUACAAAAGCACUCACCAAAGGGUCAACUCGAUACAUU
**Q.** Does B1 bind [2]?
**A.** binds

**Q.** Does B1 bind [3]?
**A.** binds
